Measured values taken from patent US20100047893A1 (RESEARCH FOUNDATION OF STATE UNIVERSITY OF NEW YORK, published 2010).

Target: the molecule itself
Test: nondenaturing 4-20% PAGE and western blot of 1 ug recombinant TbPRMT7-His

B1: recombinant TbPRMT7-His (enzyme)
chain: MPPKQHRHQKKDKNDNALQNTIGFVPPGATLASVSGYRPPDAFVNRIDRNIPVPARLRHTPVSLIEAVNDFHYAMMNDEERNNFYYEVLKKHVTPETGVLEIGAGSGLLSLMAAKLGAKWVVAVEGSEELAKLARENIRANNMEHQVKVLHMMSTELKSKHLPEPPDVLLSEIFGTMMLGESALDYVVDVRNRLLKPTTKIIPQFGTQYAVPIECDALHRISSVSGWRDLDLKHMMTLQDTVSIVFAKHYGIRMNSVNFRRLSDPIELFRVDFSSSNRNDIPRRKHFDVVAKESGTAHAMLFYWKVTDDEFVMSTDPEDTVNNFPRDMQWGQALQLLDASNGPLPTPVVFTEGKNYNFECNFSGDRVILHMQLCPESGNGEMTECEGKTT
notes: also called T. brucei PRMT7; Tb927.7.5490; not shown: His tag
B1: binds.
